Data from paper PMC5540112 (mAbs, 2017).

biological target: T1, Recombinant GPVI-Fc (extracellular domain of human GPVI fused to human IgG1 Fc domain) (Homo sapiens, UniProt Q9HCN6); assay: ELISA
T1 sequence (Q9HCN6 21-267): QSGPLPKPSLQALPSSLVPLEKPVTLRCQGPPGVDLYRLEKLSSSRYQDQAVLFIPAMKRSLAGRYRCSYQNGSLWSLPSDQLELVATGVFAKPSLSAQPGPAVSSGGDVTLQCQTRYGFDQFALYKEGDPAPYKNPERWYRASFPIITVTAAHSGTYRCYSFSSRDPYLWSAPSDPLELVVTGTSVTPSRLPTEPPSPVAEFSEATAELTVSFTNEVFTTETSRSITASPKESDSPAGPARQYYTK

| binding result | Binder |
| --- | --- |
| binds | ACT010, humanized anti-GPVI Fab (VL3b + VH3) (Fab, V domains shown) VH: QVQLVQSGAEVKKPGASVKVSCKASGYTFTSYNMHWVRQAPGQGLEWMGGIYPGNGDTSYNQKFQGRVTMTRDTSTSTVYMELSSLRSEDTAVYYCARGTVVGDWYFDVWGQGTLVTVSS VL: DIVMTQTPLSLSVSVGERVTITCKSSQSLENSNGNTYLNWYLQKPGQAPQLLIYRVSNRFSGVPDRFSGSGSGTDFTLTISRVEAEDVGVYYCLQLTHVPWTFGQGTKLEIK |

biological target: T1, Recombinant GPVI-Fc (extracellular …); assay: SPR

| Binder | Kd [nM] |
| --- | --- |
| ACT017, humanized anti-GPVI Fab (VL8b + VH3) (Fab, V domains shown) VH: QVQLVQSGAEVKKPGASVKVSCKASGYTFTSYNMHWVRQAPGQGLEWMGGIYPGNGDTSYNQKFQGRVTMTRDTSTSTVYMELSSLRSEDTAVYYCARGTVVGDWYFDVWGQGTLVTVSS VL: DIQMTQSPSSLSASVGDRVTITCRSSQSLENSNGNTYLNWYQQKPGKAPKLLIYRVSNRFSGVPSRFSGSGSGTDFTFTISSLQPEDIATYYCLQLTHVPWTFGQGTKVEIT | 4.1 |
| ACT006, humanized anti-GPVI Fab (VL2b + VH3) (Fab, V domains shown) VH: QVQLVQSGAEVKKPGASVKVSCKASGYTFTSYNMHWVRQAPGQGLEWMGGIYPGNGDTSYNQKFQGRVTMTRDTSTSTVYMELSSLRSEDTAVYYCARGTVVGDWYFDVWGQGTLVTVSS VL: DIQMTQSPSSLSASVGDRVTITCSASQSLENSNGNTYLNWYQQKPGKAPKLLIYRVSNRFSGVPSRFSGSGSGTDFTLTISSLQPEDFATYYCLQLTHVPWTFGQGTKVEIK | < 8 |

The remaining lines, values ahead:

| Kd [nM] | Binder |
| --- | --- |
| < 25 | ACT005, humanized anti-GPVI Fab (VL2b + VH2) (Fab, V domains shown) VH: EVQLVESGGGLVQPGGSLRLSCAASGYTFTSYNMHWVRQAPGKGLEWVGGIYPGNGDTSYNADFKRRFTFSLDTSKSTAYLQMNSLRAEDTAVYYCARGTVVGDWYFDVWGQGTLVTVSS VL: DIQMTQSPSSLSASVGDRVTITCSASQSLENSNGNTYLNWYQQKPGKAPKLLIYRVSNRFSGVPSRFSGSGSGTDFTLTISSLQPEDFATYYCLQLTHVPWTFGQGTKVEIK |
| < 25 | ACT016, humanized anti-GPVI Fab (VL8b + VH2) (Fab, V domains shown) VH: EVQLVESGGGLVQPGGSLRLSCAASGYTFTSYNMHWVRQAPGKGLEWVGGIYPGNGDTSYNADFKRRFTFSLDTSKSTAYLQMNSLRAEDTAVYYCARGTVVGDWYFDVWGQGTLVTVSS VL: DIQMTQSPSSLSASVGDRVTITCRSSQSLENSNGNTYLNWYQQKPGKAPKLLIYRVSNRFSGVPSRFSGSGSGTDFTFTISSLQPEDIATYYCLQLTHVPWTFGQGTKVEIT |
| 17 | Fab 9O12, Fab fragment of the mouse monoclonal IgG1,k 9O12 (Fab, V domains shown) VH: QVQLQESGAELVKPGASVKMSCKASGYTFTSYNMHWVKQTPGQGLEWIGGIYPGNGDTSFNQKFKGKATLTADKSSRTAYMQLSSLTSEDSAVYYCARGTVVGDWYFDVWGAGTTLTVSS VL: DVLMTQTPLSLPVSLGDQASISCRSSQSLENSNGNTYLNWYLQKPGQSPQLLIYRVSNRFSGVLDRFSGSGSGTDFTLKISRVEAEDLGVYFCLQLTHVPWTFGGGTKLEIK |
